Experimental data as given in patent US20200399332A1 (published 2020).

Columns and labels:
[1] = target: the molecule itself; assay: self-association; non-reducing SDS-PAGE, CBB staining
Description: The recovered culture supernatant was applied to an antibody column obtained by immobilizing mouse anti-human AIM monoclonal antibody (clone 7, autologously manufactured) on HiTrap NHS-activated HP column (GE Healthcare Life Sciences) to purify human rAIM. The human rAIM bound to the antibody column was eluted with 0.1 M glycine-HCl (pH2.5), and immediately neutralized with 1 M Tris-HCl (pH 8.5) to obtain human rAIM eluate. The buffer in the eluate was substituted with Dulbecco's Phosphate-Buffered Saline (DPBS) by using Amicon Ultra filter concentrators (Millipore) to perform concentration. The protein level of the human rAIM concentrate was quantified using Bcinchoninic acid (BCA) assay (Pierce), and the final concentration was adjusted to 2.0 mg/mL with DPBS. The wild-type human rAIM protein (1 μg) purified and concentrated as mentioned above was separated under non-reducing conditions by polyacrylamide gel electrophoresis (SDS-PAGE) based on the difference in the molecular weights, Coomassie Brilliant Blue (CBB) staining was performed, and wild-type human rAIM was detected.
The wild-type mouse rAIM was prepared as follows. […] The protein level of the mouse rAIM concentrate was quantified using BCA assay, and the final concentration was adjusted to 2.0 mg/mL with DPBS. […]

[2] = target: the molecule itself; assay: self-association; non-reducing SDS-PAGE, Oriole staining
Description: To verify the possibility of the cysteine at amino acid number 168 and the cysteine at amino acid number 277 of wild-type human AIM shown in SEQ ID NO: 1 being involved in the multimerization of wild-type human rAIM, the inventors prepared mutant human rAIM in which the above-mentioned cysteines are substituted with different amino acids. First, to maintain the function of wild-type human rAIM, the amino acid to be used for substitution was studied. Since cysteine is hydrophilic (hydrogen bond can be formed), electric charge 0, and non-aromatic, serine, threonine, asparagine, glutamine were selected as 4 similar amino acids. […] The mutant human rAIM was prepared as follows. […] The purified and concentrated wild-type, 2CS, 3CS, 2/3CS human rAIM proteins, each 100 ng, were separated by SDS-PAGE under non-reducing conditions based on the difference in the molecular weights, Oriole staining was performed, and each human rAIM protein was detected.

[3] = target: the molecule itself; assay: self-association; non-reducing SDS-PAGE, Oriole staining, 100 ng

Protein | binding result [1] | binding result [2] | binding result [3]
wild-type mouse recombinant AIM (other, Secreted from HEK293 / HEK293T cells; also called wild-type mouse rAIM; mouse rAIM) VQLVGGAHRCEGRVEVEHNGQWGTVCDDGWDRRDVAVVCRELNCGAVIQTPRGASYQPPASEQRVLIQGVDCNGTEDTLAQCELNYDVFDCSHEEDAGAQCENPDSDLLFIPEDVRLVDGPGHCQGRVEVLHQSQWSTVCKAGWNLQVSKVVCRQLGCGRALLTYGSCNKNTQGKGPIWMGKMSCSGQEANLRSCLLSRLENNCTHGEDTWMECEDPFELKLVGGDTPCSGRLEVLHKGSWGSVCDDNWGEKEDQVVCKQLGCGKSLHPSPKTRKIYGPGAGRIWLDDVNCSGKEQSLEFCRHRLWGYHDCTHKEDVEVICTDFDV | binds |  | 
mutant human AIM 2CS (cysteine 168 of SEQ ID NO: 1 substituted with serine) (other, Expressed transiently in HEK293T cells; also called 2CS human rAIM) VRLVGGLHRCEGRVEVEQKGQWGTVCDDGWDIKDVAVLCRELGCGAASGTPSGILYEPPAEKEQKVLIQSVSCTGTEDTLAQCEQEEVYDCSHDEDAGASCENPESSFSPVPEGVRLADGPGHCKGRVEVKHQNQWYTVCQTGWSLRAAKVVCRQLGCGRAVLTQKRSNKHAYGRKPIWLSQMSCSGREATLQDCPSGPWGKNTCNHDEDTWVECEDPFDLRLVGGDNLCSGRLEVLHKGVWGSVCDDNWGEKEDQVVCKQLGCGKSLSPSFRDRKCYGPGVGRIWLDNVRCSGEEQSLEQCQHRFWGFHDCTHQEDVAVICSG |  | binds | 
mutant human AIM 3CS (cysteine 277 of SEQ ID NO: 1 substituted with serine) (other, Expressed transiently in HEK293T cells; also called 3CS human rAIM) VRLVGGLHRCEGRVEVEQKGQWGTVCDDGWDIKDVAVLCRELGCGAASGTPSGILYEPPAEKEQKVLIQSVSCTGTEDTLAQCEQEEVYDCSHDEDAGASCENPESSFSPVPEGVRLADGPGHCKGRVEVKHQNQWYTVCQTGWSLRAAKVVCRQLGCGRAVLTQKRCNKHAYGRKPIWLSQMSCSGREATLQDCPSGPWGKNTCNHDEDTWVECEDPFDLRLVGGDNLCSGRLEVLHKGVWGSVCDDNWGEKEDQVVCKQLGCGKSLSPSFRDRKSYGPGVGRIWLDNVRCSGEEQSLEQCQHRFWGFHDCTHQEDVAVICSG |  | binds | 
wild-type human recombinant AIM (apoptosis inhibitor of macrophage, CD5L) (other, Secreted from HEK293 / HEK293T cells; also called wild-type human rAIM; human rAIM) VRLVGGLHRCEGRVEVEQKGQWGTVCDDGWDIKDVAVLCRELGCGAASGTPSGILYEPPAEKEQKVLIQSVSCTGTEDTLAQCEQEEVYDCSHDEDAGASCENPESSFSPVPEGVRLADGPGHCKGRVEVKHQNQWYTVCQTGWSLRAAKVVCRQLGCGRAVLTQKRCNKHAYGRKPIWLSQMSCSGREATLQDCPSGPWGKNTCNHDEDTWVECEDPFDLRLVGGDNLCSGRLEVLHKGVWGSVCDDNWGEKEDQVVCKQLGCGKSLSPSFRDRKCYGPGVGRIWLDNVRCSGEEQSLEQCQHRFWGFHDCTHQEDVAVICSG | binds |  | 
mutant human AIM 2/3CS (cysteines 168 and 277 of SEQ ID NO: 1 substituted with serine) (other, Expressed transiently in HEK293T cells) VRLVGGLHRCEGRVEVEQKGQWGTVCDDGWDIKDVAVLCRELGCGAASGTPSGILYEPPAEKEQKVLIQSVSCTGTEDTLAQCEQEEVYDCSHDEDAGASCENPESSFSPVPEGVRLADGPGHCKGRVEVKHQNQWYTVCQTGWSLRAAKVVCRQLGCGRAVLTQKRSNKHAYGRKPIWLSQMSCSGREATLQDCPSGPWGKNTCNHDEDTWVECEDPFDLRLVGGDNLCSGRLEVLHKGVWGSVCDDNWGEKEDQVVCKQLGCGKSLSPSFRDRKSYGPGVGRIWLDNVRCSGEEQSLEQCQHRFWGFHDCTHQEDVAVICSG |  |  | no binding
mutant mouse AIM 2CS (cysteine 168 of SEQ ID NO: 2 substituted with serine) (other, Expressed transiently in HEK293T cells; also called 2CS mouse rAIM) VQLVGGAHRCEGRVEVEHNGQWGTVCDDGWDRRDVAVVCRELNCGAVIQTPRGASYQPPASEQRVLIQGVDCNGTEDTLAQCELNYDVFDCSHEEDAGAQCENPDSDLLFIPEDVRLVDGPGHCQGRVEVLHQSQWSTVCKAGWNLQVSKVVCRQLGCGRALLTYGSSNKNTQGKGPIWMGKMSCSGQEANLRSCLLSRLENNCTHGEDTWMECEDPFELKLVGGDTPCSGRLEVLHKGSWGSVCDDNWGEKEDQVVCKQLGCGKSLHPSPKTRKIYGPGAGRIWLDDVNCSGKEQSLEFCRHRLWGYHDCTHKEDVEVICTDFDV |  |  | no binding
